{
  "source": "patent US20040253709A1",
  "target": "human IgE (human) (UniProt P01854)",
  "assay": "Western blots of His tag IPSE incubated with human IgE (100-100,000 ng/ml), compared with IgG; called competitive inhibition experiments in paragraph 33",
  "data": [
    {"substance": "recombinant His tag IPSE fusion protein", "values": [
      {"measurement": "fold higher affinity than to IgG", "result": 100, "unit": "times"}
    ]}
  ]
}
